Results taken from paper PMC5145889, “Differential CCR7 Targeting in Dendritic Cells by Three Naturally Occurring CC-Chemokines” (Frontiers in Immunology, 2016).
Substitutions are numbered along the chain they refer to. Values belong to the molecule of their own block, whether it stands above or below them.

Columns and labels:
[1] = target: CCR7 Y312A (human) (UniProt P32248)
[2] = target: human CCR7, wild type, untagged (human) (UniProt P32248)
[3] = target: human CCR7, wild type, untagged (human) (UniProt P32248); remark: listed apart in the source
[4] = target: CCR7 fused with the ProLink (PK) 1-tag (human) (UniProt P32248)
[5] = target: human CCR7, wild type, untagged (human) (UniProt P32248); remark: listed apart in the source
[6] = target: T1, CCR7 F133A (human, UniProt P32248 25-378, F133A); assay: cell-based or functional assay
T1 sequence (looked up): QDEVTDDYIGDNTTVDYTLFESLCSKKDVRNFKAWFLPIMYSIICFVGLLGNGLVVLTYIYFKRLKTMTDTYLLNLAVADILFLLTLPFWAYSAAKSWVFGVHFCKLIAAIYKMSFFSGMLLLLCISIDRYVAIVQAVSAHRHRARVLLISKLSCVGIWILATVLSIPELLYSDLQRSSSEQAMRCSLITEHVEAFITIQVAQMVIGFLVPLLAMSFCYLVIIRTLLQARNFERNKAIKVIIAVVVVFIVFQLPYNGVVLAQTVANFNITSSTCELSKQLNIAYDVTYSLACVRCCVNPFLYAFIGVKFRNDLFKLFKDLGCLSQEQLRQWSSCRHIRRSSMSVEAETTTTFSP

[7] = target: T2, CCR7 K137A (human, UniProt P32248 25-378, K137A); assay: cell-based or functional assay
T2 sequence (looked up): T1 sequence (looked up) with A109F, K113A

[8] = target: T3, CCR7 E193A (human, UniProt P32248 25-378, E193A); assay: cell-based or functional assay
T3 sequence (looked up): T1 sequence (looked up) with A109F, E169A

[9] = target: T4, human CCR7, wild type, untagged (human, UniProt P32248 25-378); assay: cell-based or functional assay
T4 sequence (looked up): T1 sequence (looked up) with A109F

[10] = target: T4, human CCR7, wild type, untagged; assay: cell-based or functional assay; remark: listed apart in the source
[11] = target: T5, CCR7 Y312A (human, UniProt P32248 25-378, Y312A); assay: cell-based or functional assay
T5 sequence (looked up): T1 sequence (looked up) with A109F, Y288A

[12] = target: T6, CCR7 fused with the ProLink (PK) 1-tag (human, UniProt P32248 25-378); assay: cell-based or functional assay
T6 sequence (looked up): T1 sequence (looked up) with A109F

EC50 of PI-turnover in HEK293 cells [1]: 0.0078 µM | EC50 of PI-turnover (Gαi signalling read through Gqi4myr) in HEK293 cells transfected with CCR7 [3]: 0.005 µM | EC50 of β-arrestin 2 recruitment to CCR7 (PathHunter, U2OS cells) [4]: 0.015 µM | EC50 of β-arrestin 2-dependent CCR7 internalization (U2OS cells, 3 h) [5]: 0.0041 µM
Molecule: human chemokine CCL19 (from UniProt Q99731 22-98) (ligand)
EC50 of PI-turnover in HEK293 cells (mutagenesis series, wild type) [2]: 0.0054 µM

percentage activation of CCR7 (G-protein signaling) relative to CCL19 [6]: 27.1 % relative to CCL19 | percentage activation of CCR7 (G-protein signaling) relative to CCL19 [7]: 16.7 % relative to CCL19 | percentage activation of CCR7 (G-protein signaling) relative to CCL19 [8]: 17.5 % relative to CCL19 | percentage activation of CCR7 (G-protein signaling) relative to CCL19 [9]: 42.7 % relative to CCL19 | EC50 of PI-turnover (Gαi signalling read through Gqi4myr) in HEK293 cells transfected with CCR7 [10]: ~0.142 µM
B1: tailless-CCL21 (ligand, human)
chain: SDGGAQDCCLKYSQRKIPAKVVRSYRKQEPSLGCSIPAILFLPRKRSQAELCADPKELWVQQLMQHLDKTPSPQKPAQG

percentage activation of CCR7 (G-protein signaling) relative to CCL19 [6]: 28.7 % relative to CCL19 | percentage activation of CCR7 (G-protein signaling) relative to CCL19 [7]: 16 % relative to CCL19 | percentage activation of CCR7 (G-protein signaling) relative to CCL19 [8]: 19.3 % relative to CCL19 | percentage activation of CCR7 (G-protein signaling) relative to CCL19 [9]: 57 % relative to CCL19 | EC50 of PI-turnover in HEK293 cells [11]: ~0.077 µM | EC50 of PI-turnover (Gαi signalling read through Gqi4myr) in HEK293 cells transfected with CCR7 [10]: ~0.05 µM | EC50 of β-arrestin 2-dependent CCR7 internalization (U2OS cells, 3 h) [10]: ~0.152 µM | EC50 of β-arrestin 2 recruitment to CCR7 (PathHunter, U2OS cells) [12]: ~0.263 µM
B2: human chemokine CCL21 (full-length CCL21) (ligand, UniProt O00585 24-134, looked up)
chain: SDGGAQDCCLKYSQRKIPAKVVRSYRKQEPSLGCSIPAILFLPRKRSQAELCADPKELWVQQLMQHLDKTPSPQKPAQGCRKDRGASKTGKKGKGSKGCKRTERSQTPKGP
EC50 of PI-turnover in HEK293 cells (mutagenesis series, wild type) [10]: ~0.156 µM
